Source: patent US12310324B2, “Compositions and methods for minimizing nornicotine synthesis in tobacco” (North Carolina State University, priority 2010, dated 2025)

Tests used:
[1] = test system: CYP82E4 nicotine demethylase
[2] = test system: CYP82E10 nicotine demethylase; test: Nicotine demethylase assay, yeast microsomal membranes with [14C]-nicotine, CYP82E10 and variants; type: biochemical, tobacco; design: Activity of Mutant Enzyme: concentration or dose not given beside the values; conditions: for Activity of Mutant Enzyme: relative to the wild type enzyme when expressed in yeast; for nicotine demethylase (enzyme) activity, result in words: [14C]-nicotine
Text: To determine whether CYP82E10 functions as a nicotine demethylase gene, its cDNA was cloned into the yeast expression vector pYeDP60 and transformed into yeast strain W(R). Strain W(R) is a yeast cell line that was engineered to overexpress the yeast NADPH-dependent P450 reductase, an enzyme that serves as the direct electron donor to P450s; this system greatly enhances the detection of foreign P450 enzyme activities that are expressed in yeast (Pompon et al., 1995). Nicotine demethylase assays were conducted by incubating yeast microsomal membrane preparations with [^14C]-nicotine, and resolving the products by thin layer chromatography as described in Siminszky et al. (2005).
The nucleotide and amino acid residues mutated in these plants are also highlighted in FIG. 1. Although no truncation mutations were observed among these individuals, in several cases, mutations were identified that altered an amino acid residue within a highly conserved region of the enzyme. To determine the effects of a particular mutation on CYP82E10 enzyme activity, site-directed mutagenesis was used to introduce the specific mutations corresponding to seven of the nine mutations shown in Table 2 into the CYP82E10 cDNA within the pYeDP60 yeast expression vector. Microsomal preparations from yeast strains expressing each of the seven CYP82E10 variants were assayed in vitro for nicotine demethylase activity using both non-saturating (2.45 μM) and saturating (50 μM) concentrations of [^14C]-nicotine.

Molecule	inhibition of nicotine demethylase activity (knocked out) [1] [%]	Activity of Mutant Enzyme [2]	nicotine demethylase (enzyme) activity, result in words ([2]; yeast microsomes)	loss of nicotine demethylase activity from mutation (knocked out) [2] [%]	nicotine demethylase activity relative to the wild-type CYP82E10 polypeptide [2]	reduction in activity compared to the wild type CYP82E10 enzyme ([2]; yeast microsomes, 2.45 μM and 50 μM [14C]-nicotine) [%]
CYP82E4 K364N: CYP82E4 variant with asparagine for lysine at position 364 (protein, listed as Nicotiana tabacum, CYP82E4 K364N Variant) MLSPIEAIVGLVTFTFLFFFLWTKKSQKPSKPLPPKIPGGWPVIGHLFHFNDDGDDRPLARKLGDLADKYGPVFTFRLGLPLVLVVSSYEAVKDCFSTNDAIFSNRPAFLYGDYLGYNNAMLFLANYGPYWRKNRKLVIQEVLSASRLEKFKHVRFARIQASIKNLYTRIDGNSSTINLTDWLEELNFGLIVKMIAGKNYESGKGDEQVERFKKAFKDFMILSMEFVLWDAFPIPLFKWVDFQGHVKAMKRTFKDIDSVFQNWLEEHINKREKMEVNAEGNEQDFIDVVLSKMSNEYLGEGYSRDTVIKATVFSLVLDAADTVALHINWGMALLINNQKALTKAQEEIDTKVGKDRWVEESDINDLVYLQAIVKEVLRLYPPGPLLVPHENVEDCVVSGYHIPKGTRLFANVMKLQRDPKLWSDPDTFDPERFIATDIDFRGQYYKYIPFGSGRRSCPGMTYALQVEHLTMAHLIQGFNYRTPNDEPLDMKEGAGITIRKVNPVELIIAPRLAPELY	100	–	–	–	–	–
CYP82E4 W329Stop: CYP82E4 variant with stop codon for tryptophan at position 329 (protein, listed as Nicotiana tabacum, CYP82E4 W329Stop Variant) MLSPIEAIVGLVTFTFLFFFLWTKKSQKPSKPLPPKIPGGWPVIGHLFHFNDDGDDRPLARKLGDLADKYGPVFTFRLGLPLVLVVSSYEAVKDCFSTNDAIFSNRPAFLYGDYLGYNNAMLFLANYGPYWRKNRKLVIQEVLSASRLEKFKHVRFARIQASIKNLYTRIDGNSSTINLTDWLEELNFGLIVKMIAGKNYESGKGDEQVERFKKAFKDFMILSMEFVLWDAFPIPLFKWVDFQGHVKAMKRTFKDIDSVFQNWLEEHINKREKMEVNAEGNEQDFIDVVLSKMSNEYLGEGYSRDTVIKATVFSLVLDAADTVALHIN	100	–	–	–	–	–
Plant 693: CYP82E10 mutant enzyme R417H (mutation G1250A) from plant 693 (protein, listed as Nicotiana tabacum, CYP82E10 R417H Variant) MVSPVEAIVGLVTLTLLFYFIRTKKSQKPSKPLPPKIPGGWPVIGHLFYFDDDSDDRPLARKLGDLADKYGPVFTFRLGLPLVLVVSSYEAIKDCFSTNDAIFSNRPAFLYGEYLGYNNAMLFLTKYGPYWRKNRKLVIQEVLCASRLEKLKHVRFGEIQTSIKNLYTRIDGNSSTINLTDWLEELNFGLIVKMIAGKNYESGKGDEQVERFRKAFKDFIILSMEFVLWDAFPIPLFKWVDFQGHVKAMKRTFKDIDSVFQNWLEEHVKKKEKMEVNAEGNEQDFIDVVLSKMSNEYLDEGYSRDTVIKATVFSLVLDAADTVALHMNWGMALLINNQHALKKAQEEIDKKVGKDRWVEESDIKDLVYLQTIVKEVLRLYPPGPLLVPHENVEDCVVSGYHIPKGTRLFANVMKLQHDPKLWSNPDKFDPERFFAADIDFRGQHYEFIPFGSGRRSCPGMTYAMQVEHLTIAHLIQGFNYKTPNDEPLDMKEGAGLTIRKVNPIEVVITPRLTPELY	–	100%	did not alter enzyme activity	–	–	–
Plant 1512: CYP82E10 mutant enzyme P107S (mutation C319T) from EMS treated DH98-325-6 plant 1512 (protein, listed as Nicotiana tabacum, CYP82E10 P107S Variant) MVSPVEAIVGLVTLTLLFYFIRTKKSQKPSKPLPPKIPGGWPVIGHLFYFDDDSDDRPLARKLGDLADKYGPVFTFRLGLPLVLVVSSYEAIKDCFSTNDAIFSNRSAFLYGEYLGYNNAMLFLTKYGPYWRKNRKLVIQEVLCASRLEKLKHVRFGEIQTSIKNLYTRIDGNSSTINLTDWLEELNFGLIVKMIAGKNYESGKGDEQVERFRKAFKDFIILSMEFVLWDAFPIPLFKWVDFQGHVKAMKRTFKDIDSVFQNWLEEHVKKKEKMEVNAEGNEQDFIDVVLSKMSNEYLDEGYSRDTVIKATVFSLVLDAADTVALHMNWGMALLINNQHALKKAQEEIDKKVGKDRWVEESDIKDLVYLQTIVKEVLRLYPPGPLLVPHENVEDCVVSGYHIPKGTRLFANVMKLQRDPKLWSNPDKFDPERFFAADIDFRGQHYEFIPFGSGRRSCPGMTYAMQVEHLTIAHLIQGFNYKTPNDEPLDMKEGAGLTIRKVNPIEVVITPRLTPELY	–	Not detected	complete enzyme inactivation	100	–	–
Plant 1442: CYP82E10 mutant enzyme P419S (mutation C1255T) from plant 1442 (protein, listed as Nicotiana tabacum, CYP82E10 P419S Variant) MVSPVEAIVGLVTLTLLFYFIRTKKSQKPSKPLPPKIPGGWPVIGHLFYFDDDSDDRPLARKLGDLADKYGPVFTFRLGLPLVLVVSSYEAIKDCFSTNDAIFSNRPAFLYGEYLGYNNAMLFLTKYGPYWRKNRKLVIQEVLCASRLEKLKHVRFGEIQTSIKNLYTRIDGNSSTINLTDWLEELNFGLIVKMIAGKNYESGKGDEQVERFRKAFKDFIILSMEFVLWDAFPIPLFKWVDFQGHVKAMKRTFKDIDSVFQNWLEEHVKKKEKMEVNAEGNEQDFIDVVLSKMSNEYLDEGYSRDTVIKATVFSLVLDAADTVALHMNWGMALLINNQHALKKAQEEIDKKVGKDRWVEESDIKDLVYLQTIVKEVLRLYPPGPLLVPHENVEDCVVSGYHIPKGTRLFANVMKLQRDSKLWSNPDKFDPERFFAADIDFRGQHYEFIPFGSGRRSCPGMTYAMQVEHLTIAHLIQGFNYKTPNDEPLDMKEGAGLTIRKVNPIEVVITPRLTPELY	–	25%	–	–	about 25%	75
Plant 817: CYP82E10 mutant enzyme A410T (mutation G1228A) from plant 817 (protein, listed as Nicotiana tabacum, CYP82E10 A410T) MVSPVEAIVGLVTLTLLFYFIRTKKSQKPSKPLPPKIPGGWPVIGHLFYFDDDSDDRPLARKLGDLADKYGPVFTFRLGLPLVLVVSSYEAIKDCFSTNDAIFSNRPAFLYGEYLGYNNAMLFLTKYGPYWRKNRKLVIQEVLCASRLEKLKHVRFGEIQTSIKNLYTRIDGNSSTINLTDWLEELNFGLIVKMIAGKNYESGKGDEQVERFRKAFKDFIILSMEFVLWDAFPIPLFKWVDFQGHVKAMKRTFKDIDSVFQNWLEEHVKKKEKMEVNAEGNEQDFIDVVLSKMSNEYLDEGYSRDTVIKATVFSLVLDAADTVALHMNWGMALLINNQHALKKAQEEIDKKVGKDRWVEESDIKDLVYLQTIVKEVLRLYPPGPLLVPHENVEDCVVSGYHIPKGTRLFTNVMKLQRDPKLWSNPDKFDPERFFAADIDFRGQHYEFIPFGSGRRSCPGMTYAMQVEHLTIAHLIQGFNYKTPNDEPLDMKEGAGLTIRKVNPIEVVITPRLTPELY	–	100%	did not alter enzyme activity	–	–	–
Plant 2476: CYP82E10 mutant enzyme G79S (mutation G235A) from EMS treated DH98-325-6 plant 2476 (protein, listed as Nicotiana tabacum, CYP82E10 G79S Variant) MVSPVEAIVGLVTLTLLFYFIRTKKSQKPSKPLPPKIPGGWPVIGHLFYFDDDSDDRPLARKLGDLADKYGPVFTFRLSLPLVLVVSSYEAIKDCFSTNDAIFSNRPAFLYGEYLGYNNAMLFLTKYGPYWRKNRKLVIQEVLCASRLEKLKHVRFGEIQTSIKNLYTRIDGNSSTINLTDWLEELNFGLIVKMIAGKNYESGKGDEQVERFRKAFKDFIILSMEFVLWDAFPIPLFKWVDFQGHVKAMKRTFKDIDSVFQNWLEEHVKKKEKMEVNAEGNEQDFIDVVLSKMSNEYLDEGYSRDTVIKATVFSLVLDAADTVALHMNWGMALLINNQHALKKAQEEIDKKVGKDRWVEESDIKDLVYLQTIVKEVLRLYPPGPLLVPHENVEDCVVSGYHIPKGTRLFANVMKLQRDPKLWSNPDKFDPERFFAADIDFRGQHYEFIPFGSGRRSCPGMTYAMQVEHLTIAHLIQGFNYKTPNDEPLDMKEGAGLTIRKVNPIEVVITPRLTPELY	–	Not detected	complete enzyme inactivation	100	–	–
Plant 1035: CYP82E10 mutant enzyme A344T (mutation G1030A) from plant 1035 (protein, listed as Nicotiana tabacum, CYP82E10 A344T Variant) MVSPVEAIVGLVTLTLLFYFIRTKKSQKPSKPLPPKIPGGWPVIGHLFYFDDDSDDRPLARKLGDLADKYGPVFTFRLGLPLVLVVSSYEAIKDCFSTNDAIFSNRPAFLYGEYLGYNNAMLFLTKYGPYWRKNRKLVIQEVLCASRLEKLKHVRFGEIQTSIKNLYTRIDGNSSTINLTDWLEELNFGLIVKMIAGKNYESGKGDEQVERFRKAFKDFIILSMEFVLWDAFPIPLFKWVDFQGHVKAMKRTFKDIDSVFQNWLEEHVKKKEKMEVNAEGNEQDFIDVVLSKMSNEYLDEGYSRDTVIKATVFSLVLDAADTVALHMNWGMALLINNQHALKKTQEEIDKKVGKDRWVEESDIKDLVYLQTIVKEVLRLYPPGPLLVPHENVEDCVVSGYHIPKGTRLFANVMKLQRDPKLWSNPDKFDPERFFAADIDFRGQHYEFIPFGSGRRSCPGMTYAMQVEHLTIAHLIQGFNYKTPNDEPLDMKEGAGLTIRKVNPIEVVITPRLTPELY	–	100%	did not alter enzyme activity	–	–	–
